T1: MAZ (Homo sapiens (pGEX-hMAZ), UniProt P56270 1-477)
T1 sequence: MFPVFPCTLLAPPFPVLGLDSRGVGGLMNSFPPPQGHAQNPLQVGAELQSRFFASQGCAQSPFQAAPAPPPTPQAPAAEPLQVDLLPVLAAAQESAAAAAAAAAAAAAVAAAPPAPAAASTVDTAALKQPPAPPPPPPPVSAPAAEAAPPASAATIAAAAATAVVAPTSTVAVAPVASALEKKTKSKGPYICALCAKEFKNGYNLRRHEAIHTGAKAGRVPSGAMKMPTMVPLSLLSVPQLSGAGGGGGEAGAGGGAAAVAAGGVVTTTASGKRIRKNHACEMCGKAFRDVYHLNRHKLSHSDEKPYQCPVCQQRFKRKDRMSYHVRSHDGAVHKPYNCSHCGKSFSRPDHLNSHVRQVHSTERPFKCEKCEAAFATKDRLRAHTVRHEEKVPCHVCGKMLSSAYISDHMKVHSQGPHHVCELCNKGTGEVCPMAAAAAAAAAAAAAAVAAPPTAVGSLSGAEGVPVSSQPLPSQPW

B1: 32R-3n (structured_DNA)
DNA: GCGGTGTGGGAAGAGGGAAGAGGGGGAGGCAG
B2: 3044 (XNA)
DNA: GCGGTGTGGGAAGAGGGAAGAGGGGGAGGCAG
modifications: AMANY inserted after G10 and after A21; 2 LNA at 3' end

Columns and labels:
MAZ [1] = biological target: T1, MAZ; assay: double-filter binding
MAZ [2] = biological target: T1, MAZ; assay: competition

| Binder | Kd (MAZ [1]) [nM] | binding result (MAZ [2]) |
| --- | --- | --- |
| B1 | 320 ± 2 |  |
| B2 |  | binds |

Reference: PMC3627599
